# Laboratory results published in publication PMC3393791.
# B1: Full-length human TIP47/perilipin-3, O60664 1-434 (natural protein)
# chain: MSADGAEADGSTQVTVEEPVQQPSVVDRVASMPLISSTCDMVSAAYASTKESYPHIKTVCDAAEKGVRTLTAAAVSGAQPILSKLEPQIASASEYAHRGLDKLEENLPILQQPTEKVLADTKELVSSKVSGAQEMVSSAKDTVATQLSEAVDATRGAVQSGVDKTKSVVTGGVQSVMGSRLGQMVLSGVDTVLGKSEEWADNHLPLTDAELARIATSLDGFDVASVQQQRQEQSYFVRLGSLSERLRQHAYEHSLGKLRATKQRAQEALLQLSQVLSLMETVKQGVDQKLVEGQEKLHQMWLSWNQKQLQGPEKEPPKPEQVESRALTMFRDIAQQLQATCTSLGSSIQGLPTNVKDQVQQARRQVEDLQATFSSIHSFQDLSSSILAQSRERVASAREALDHMVEYVAQNTPVTWLVGPFAPGITEKAPEEKK
# Target: T1, Full-length human TIP47/perilipin-3 (human), O60664
# T1 chain: B1 chain
# Assay: SEC-MALS
# Conditions: remark: other sources report otherwise
binder,measurement,value
B1,stoichiometry N,2
